Experiment [1] concerns human melanoma culture cell line G-361. Nature of the experiment: Reactivity with human cancer cell (immunofluorescent method). It is filed as binding. To be noted: antibody 5 μg/ml; FIG. 23. How it is done: (§1) Reactivity of purified anti-GD3 CDR-grafted antibodies KM8869, KM8870 and KM8871 with human cancer cells was measured as follows. That is, 1×10^6 cells of each of human melanoma culture cell lines G-361 (ATCC CRL 1424) and SK-MEL-28 (ATCC HTB72) were suspended in PBS, put into microtubes and centrifuged (2,000 rpm for 2 minutes), and the thus washed cells were stirred after adding 50 μl of the anti-GD3 chimeric antibody KM871 or the anti-GD3 CDR-grafted antibody, KM8869, KM8870 or KM8871 (a solution adjusted to 5 μg/ml with 1% BSA-PBS) and then allowed to react at 4° C. for 1 hour. After the reaction, followed by centrifugation three times with PBS for washing, 20 μl of rabbit anti-human IgG (H+L) F(ab′)2 solution (manufactured by Wako Pure chemical Industries, used by diluting 30 folds with 1% BSA-PBS) fluorescence-labeled with fluorescein isothiocyanate (hereinafter referred to as “FITC”) was added thereto, followed by stirring, and then the reaction was carried out at 4° C. for 1 hour. After the reaction, followed by centrifugation three times with PBS for washing, the cells were again suspended in PBS to carry out the analysis using a flow cytometer EPICS Elite (manufactured by COULTER). As a control, the analysis was carried out by the same procedure without adding antibodies.

In experiment [2] the test system is human melanoma culture cell line SK-MEL-28. The experiment is described as above. It is filed as binding. To be noted: antibody 5 μg/ml; FIG. 23. How it is done:
as §1

For experiment [3] the following is noted: human peripheral blood monocyte as effector; cited from earlier work.
Experiment [4] is described as follows: Reactivity of purified antibodies with GD3 (ELISA). It is filed as binding. To be noted: antibody 10 μg/ml, 20 pmol/well; FIG. 22. As for the experimental part: (§2) Each ganglioside (2 nmol) was dissolved in […] of ethanol solution containing 10 μg of dipalmitoylphosphatidylcholine (manufactured by SIGMA) and 5 μg of cholesterol (manufactured by SIGMA). In each well of a 96 well plate for ELISA (manufactured by Greiner), 20 μl of the solution (becomes 20 pmol/well) or 20 μl of the solution diluted with ethanol was respectively dispensed, followed by air-drying, and then PBS containing 1% BSA (hereinafter referred to as “1% BSA-PBS”) was added in 100 μl/well and allowed to react at room temperature for 1 hour to thereby block remaining active groups. After discarding 1% BSA-PBS, culture supernatants of transformants or diluted solutions of humanized antibodies were added in 50 μl/well and allowed to react at room temperature for 1 hour. […] After the reaction and subsequent washing with Tween-PBS, an ABTS substrate solution (a solution prepared by dissolving 0.55 g of 2,2′-azinobis(3-ethylbenzothiazoline-6-sulfonic acid) in 1 L of 0.1 M citrate buffer (pH 4.2) and adding 1 μl/ml hydrogen peroxide just before the use) was added in 50 μl/well for color development and the absorbance at 415 nm (hereinafter referred to as “OD415”) was measured.
(§3) Reactivity of purified anti-GD3 CDR-grafted antibodies KM8869, KM8870 and KM8871 with GD3 (manufactured by DIA-IATRON) was measured by the ELISA shown in the item 2 of Reference Example. […]
(In general: In an ELISA, binding on a coated surface is turned into a signal by an enzyme label.)

A short description of experiment [5]: Reactivity of purified antibodies with various gangliosides (ELISA). It is filed as binding. The conditions noted are these: antibody 10 μg/ml, 20 pmol/well; FIG. 22. As for the experimental part:
as §2, §3

Experiment [6] deals with GD3 expressing B16 cell B16•29-10. Nature of the experiment: Antitumor effects of KM871 with human IL-2, mouse syngeneic graft model. The conditions noted are these: FIG. 4; KM871 50 μg/day, IL-2 10 μg/day, days 6-14, tail vein. Format: in vivo, C57 BL/6 mouse.
Procedure: Six days after the tumor inoculation, the tumor diameter was measured using slide calipers to calculate the tumor volume by the following equation, and individuals having the value within the range of 10 to 80 mm^3 were selected.
Tumor volume=(width)^2×length×0.5
They were divided into groups in such a manner that the average tumor volume became uniform, and then the following administration groups of A to D were arranged to carry out continuous administration of the following agents from the tail vein once a day for 8 days (from the 6th day to 14th day).
IL-2 (Human Recombinant IL-2, Manufactured by Peprotech) Alone Group:
The test was carried out using 5 animals for each group. Each agent was prepared to 200 μl per animal by diluting with a citrate buffer (an aqueous solution of 10 mM citric acid and 150 n sodium chloride, adjusted to pH 6 with sodium hydroxide). From the 6th day after the inoculation, the tumor volume was periodically measured, and the antitumor effects were judged by comparing the mean value of specific volume V/V0 in each group.
The next experiment deals with B16-8-3. Kind of experiment: Fluorescent antibody technique (flow cytometer), GD3 synthase transfectant. To be noted: antibody 5 μg/ml; FIG. 3. It is filed as binding, mouse. How it is done: (§4) Each of 1×10^6 cells of the GD3 synthase gene transfectants B16-8-3 and B16-29-10 obtained in b. of the item (2) of Example 1 and the parent cell line B16-F10 cell were suspended in PBS, put into a microtube (manufactured by Treff) and centrifuged (2,000 rpm for 2 minutes) for washing the cells, 50 μl of the anti-GD3 human chimeric antibody KM871 (a solution prepared by adjusting to 5 μg/ml with 1% BSA-PBS, negative control was 1% BSA-PBS alone) was added thereto, followed by stirring, and the reaction was carried out at 4° C. for 1 hour. After the reaction and subsequent washing with PBS by centrifugation three times, 100 μl of biotin-labeled goat anti-human IgG (H+L) solution (manufactured by VECTOR, used by diluting 400 folds with 1% BSA-PBS) was added thereto, followed by stirring, and the reaction was carried out at 4° C. for 1 hour. After washing with PBS by centrifugation three times, 100 μl of a streptoavidin-labeled Cy5 pigment solution (Streptoavidin-RED670 manufactured by GIBCO, used by diluting 100 folds with 1% BSA-PBS) was added thereto, followed by stirring, and the reaction was carried out at 4° C. for 30 minutes. After the reaction and subsequent washing with PBS by centrifugation three times, the cells were again suspended in PBS to carry out the analysis using a flow cytometer EPICS Elite (manufactured by COULTER).

For a further experiment, the system named is B16-29-10. The experiment is described as above. Format: binding, mouse. The conditions noted are these: antibody 5 μg/ml; FIG. 3. As for the experimental part: as §4
Experiment [7] can be described thus: Reactivity of purified antibodies with various gangliosides (ELISA). To be noted: antibody 10 μg/ml, 20 pmol/well; FIG. 22. It is filed as binding. As for the experimental part: as §2, §3
The source holds these as a separate data set.

B1: KM871: anti-GD3 human chimeric antibody; VH SEQ ID NO:49, VL SEQ ID NO:50, human IgG1 and κ C regions (antibody, listed as Mus musculus, V domains shown)
VH: EVTLVESGGDFVKPGGSLKVSCAASGFAFSHYAMSWVRQTPAKRLEWVAYISSGGSGTYYSDSVKGRFTISRDNAKNTLYLQMRSLRSEDSAMYFCTRVKLGTYYFDSWGQGTTLTVSS
VL: DIQMTQTASSLPASLGDRVTISCSASQDISNYLNWYQQKPDGTVKLLIFYSSNLHSGVPSRFSGGGSGTDYSLTISNLEPEDIATYFCHQYSKLPWTFGGGTKLEIKR
modifications: human IgG1 and kappa constant regions
On to B1, for which the reactivity with cells entry is given as “showed the reactivity” in [1], “showed the reactivity” in experiment [2], “reacted” in the experiment with B16-8-3 and “reacted” in the experiment on B16-29-10. Moreover, the “ADCC activity in comparison with the original mouse-derived antibody” value in experiment [3] is “increased”. Besides, the binding to ganglioside entry in [4] is “bound strongly”; in experiment [5] it was “weakly”; in experiment [7] it was “did not bind”. Further, the “tumor growth inhibitory effects (mean V/V0)” value in [6] is reported as “antitumor effects were not found”.

Source of the values: US20080166345A1, “MEDICAMENTS COMPRISING GENE RECOMBINANT ANTIBODY AGAINST GANGLIOSIDE GD3” (KYOWA HAKKO KOGYO CO., LTD., priority 2001, published 2008).
